Data published in patent US20250019422A1 (MAX PLANCK GESELLSCHAFT ZUR F RDERUNG DER WISSENSCHAFTEN E V, published 2025).

Experiments:
[1] = target: T1, wt_RBD-AviHis (SARS-CoV-2 (original Wuhan strain)); test: BLI: biotinylated wild type RBD immobilised, VHH in solution, mass transport fit
[2] = target: T1, wt_RBD-AviHis; test: BLI (Octet), biotinylated RBD on streptavidin biosensors, VHH in solution
[3] = target: T1, wt_RBD-AviHis; test: BLI: biotinylated wild type RBD immobilised, VHH in solution, mass transport fit; remark: listed apart in the source

B1: Re6H06 (VHH)
VHH: QVQLVESGGGLVQPGGSLRLSCAASGVTLDYYAIGWFRQAPGKEREGVSCTSSSDGSTYYADSVKGRFTISRDNAKNTVYLQMNSLKPEDTGVYYCAVVPQTYYGGKYYSQCTANGMDYWGKGTLVTVSS
In the case of B1, the Kd [1] is reported as ≤ 10 pM and the Kd [2] is reported as ≤ 10 pM.

B2: Re32D03 (VHH)
VHH: QVQLVESGGGLVQPGGSLRLSCAISGITLDYYAVGWFLQAPGKEREGISCMRNWDGRTVYAPSVKGRFTISSDNAKKMVYLEMDNLKSEDTGVYYCAAGPLPPGISCRIPTPLGYDDWGQGTQVTVSS
For B2, the Kd [2] was ≤ 10 pM and the Kd [3] was ≤ 10 pM.

B3: Re5D06R15 (VHH)
VHH: QVQLVESGGGLVQPGGSLRLSCAASGITLDYYAMGWFREAPGKEREGVARIRNSDGSTNYADSVKGRFTMSRDNAKDTYYLQMNSLEPEDTADYYCAYGPLTKYGSSWYWPYEYDYWGQGTQVTVSS
B3 was tested, and the Kd [2] was ≤ 10 pM.

B4: Re5D06 (VHH)
VHH: QVQLVESGGGLVQPGGSLRLSCAASGITLDYYAIGWFRQAPGKEREGVSRIRSSDGSTNYADSVKGRFTMSRDNAKNTVYLQMNSLKPEDTAVYYCAYGPLTKYGSSWYWPYEYDYWGQGTQVTVSS
For B4, the Kd [1] was ≤ 10 pM.

B5: Re9B09 (VHH)
VHH: QVQLVESGGGLVQPGGSLRLSCAASGFTLDYYAIGWFRQAPGKEREGVSRISSSDGSTDYADSVKGRFTISRDNAKNTVYLQMNSLKPEDTAVYYCATVPGTYYSGNWYYTWHPEAVDYWGKGTQVTVSS
notes: also called ReB09
B5 was tested, and the Kd [2] was ≤ 10 pM and the Kd [3] was 30 pM.

B6: Re32F02 (VHH)
VHH: QVQLVESGGGLVSPGGSLKLSCAASGLTLDYYGIGWFRQVPGKEREGVSCLGVPDNRTLYAPSVKGRFTISRDNAKNTYYLEMNSLNPEDSAVYYCAAGPVVPGHMCRIPTPLGYDYWGQGTLVTVSS
B6 was tested, and the Kd [2] was ≤ 10 pM.

B7: Ma2E06 (VHH)
VHH: QVQLVESGGDLVQPRGSLRLSCAASGITLDYYAIGWFRQAPGKEREGVSYISNTNDKTDYADSVKGRFTISRDNAENTVFLQMNSLQPEDTAVYYCATVPGTYYGGRWYYTWHPEAVRYWGKGTQVTVSS
notes: also called Ma02E06
With B7 the Kd [2] was 40 pM.

B8: Re31A12 (VHH)
VHH: QVQLVESGGGLVQSGGSLRLSCLTSGVTLDYYAIGWFRQAPGKEREGVSCTSSSDGSTNYSDSVKGRFIISRDNAKNTVYLQMNSLKPEDTAVYYCAVTPATYYGGRYYFQCPYHDMHYWGKGTLVTVSS
B8 was tested, and the Kd [2] was 120 pM.

B9: Re31A08 (VHH)
VHH: QVQLVESGGGLVQPGGSLRLSCAASGITLDYYSIGWFRQAPGKEREGVSCTSSRDDSTDYADSVKGRFTISRDNAKNSVYLQMNSLNPEDTAVYYCALTPATYYSGRYYFQCPPHGMDYWGKGTLVTVSS
Work on B9 yielded a Kd [2] of 60 pM.

B10: Re32C08 (VHH)
VHH: QVQLVESGGGLVQPGGSLRLSCETSGITLDYYAIGWFLQAPGKEREGVACMRNWDGSTVYAPSVKGRFTISRDNDKKAAYLEMNSLKSEDTGVYYCAAGPLPPGHSCRIPTPLGYDDWGQGTQVTVSS
With B10 the Kd [2] was ≤ 10 pM.

B11: Re32G01 (VHH)
VHH: QVQLVESGGGLVQPGGSLRLSCETSGITLDYYAIGWFLQAPGKDREGVACMRNWDGSTLYAPSVKGRFTISRDADKEVAYLEMNSLKSEDTGVYYCAAGPLPPGHSCRIPTPLGYDDWGQGTQVTVSS
Binder B11 has a Kd [2] of 16 pM.

B12: Ma6F06 (VHH)
VHH: QVQLVESGGGLVQPGGSLRLSCATSGITLDYYAIGWFLQVPGKEREGVACMRNWDGSTLYAPSVKGRFTISRDADKEVAYLEMNSLKSEDTGVYYCAAGPLPPGHSCRIPTPLGYDDWGQGTQVTVSS
For B12, the Kd [2] was ≤ 10 pM.

B13: Re32B02 (VHH)
VHH: QVQLVESGGGLVQPGGSLRLSCATSGITLDYYAIGWFLQAPGKEREGVSCMRSSDGSTVYAPSVKGRFTISRDNAKKMVYLEMNSLKSEDTGVYYCAAGPLPPGTSCRIPTPLGYDDWGQGTQVTVSS
In the case of B13, the Kd [2] is reported as ≤ 10 pM.

B14: Re32E06 (VHH)
VHH: QVQLVESGGGLVQPGGSLRLSCETSGITLDYYAIGWFLQAPGKEREGVACMRNWDGSTLYAPSVKGRFTISRDNDKKAVYLEMNSLKSEDTGVYYCAAGPLPPGHSCRIPTPLGYDDWGQGTQVTVSS
B14 was tested, and the Kd [2] was ≤ 10 pM.

B15: Re32A10 (VHH)
VHH: QVQLVESGGGLVQPGGSLRLSCATSGITLDYYAIGWFLQAPGKEREGVSCMRSSDGSTVYAPSVKGRFTISRDNAKKMVYLEMNSLKSEDTGVYYCAAGPLPPGTSCRIPTPLGYDDWGQGTQVTVSS
Binder B15 has a Kd [2] of 4 pM.
